Square brackets hold non-standard residues; d marks the D form. Ends that are not written are not given here. pY = N[C@@H](Cc1ccc(OP(=O)(O)O)cc1)C(=O)O
B4: SOCS-3 (recombinant, His-tagged) (protein)
chain: MVTHSKFPAAGMSRPLDTSLRLKTFSSKSEYQLVVNAVRKLQESGFYWSAVTGGEANLLLSAEPAGTFLIRDSSDQRHFFTLSVKTQSGTKNLRIQCEGGSFSLQSDPRSTQPVPRFDCVLKLVHHYMPPPGTPSFSLPPTEPSSEVPEQPPAQALPGSTPKRAYYIYSGGEKIPLVLSRPLSSNVATLQHLCRKTVNGHLDSYEKVTQLPGPIREFLDQYDAPL

Key:
SOCS-3 = target: T1, SOCS-3 (Mus musculus, UniProt O35718); assay: Biosensor (SPR) analysis of recombinant SOCS-3 binding to immobilized biotinylated phosphopeptide; parameters: species or system murine; conditions: non-specific control channel on the same chip
T1 construct: hexahistidine (pET15b) (N); made in house; host or cells: E. coli BL21 DE3 pLysS
T1 sequence (O35718 1-225): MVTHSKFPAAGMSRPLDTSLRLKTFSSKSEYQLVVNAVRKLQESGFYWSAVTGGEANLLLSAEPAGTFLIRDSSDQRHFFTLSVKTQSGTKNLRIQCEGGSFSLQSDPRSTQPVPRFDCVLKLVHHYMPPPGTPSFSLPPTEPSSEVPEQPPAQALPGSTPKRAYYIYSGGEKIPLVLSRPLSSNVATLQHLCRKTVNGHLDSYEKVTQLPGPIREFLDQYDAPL
Protocol: Purified protein was refolded by dialysis into PBS containing 2 mM DTT, 2 mM EDTA and 0.02% v/v Tween 20. Refolded material was purified to homogeneity by ion exchange chromatography on a Mono S column (Pharmacia).
Phosphopeptides containing an N-terminal biotin moiety were immobilized onto a streptavidin-coated Biosensor chip (Pharmacia) at a density of ˜200 Resonance Units (Rus). […] Binding profiles were analyzed using the BIAevaluation software version 3.0 (Pharmacia).

EPOR/gp130Y757F = assay: APRE-luc luciferase reporter assay in transiently transfected 293T cells, EPO stimulated; assay type: cell-based; conditions: gp130 cytoplasmic domain with Y757F mutation, 10U/ml EPO overnight
Protocol: Generation of the expression vectors for SOCS-1 and SOCS-3, luciferase assays and Western blot analysis have been described previously (Nicholson et al., 1999). Briefly, 293T cells were transiently transfected with SOCS expression plasmids, a LIF-responsive reporter construct (APRE-luc; Endo et al., 1997) and a β-galactosidase reporter construct under a constitutive promoter (Srα-β-gal; Ogilvy et al., 1998). Luciferase activity from triplicate samples was determined and normalized against β-galactosidase activity.
It was therefore important to confirm these findings using a biological assay. A chimeric receptor was created that contained the erythropoietin receptor (EPOR) extracellular domain and the gp130 cytoplasmic domain (EPOR/gp130). A second receptor was created containing the EPO receptor extracellular domain and the gp130 cytoplasmic domain in which tyrosine 757 had been mutated to phenylalanine (EPOR/gp130Y757F). 293T cells were transiently transfected with cDNAs expressing the receptor constructs and either SOCS-3 or SOCS-1 in the presence of the APRE-luc and Srα-β-gal reporter genes. Cells were then incubated in the presence of 10U/ml EPO overnight and luciferase activity determined. Mutation of Y757 in the gp130 cytoplasmic domain has been reported to result in a hyperactive receptor complex, presumably from the loss of a negative regulator such as SHP-2. […]

[1] = target: B4; assay: competition, SPR
[2] = target: T2, gp130(674-688) pY681 control phosphopeptide (mouse, not fully specified (N-terminus); printed as FNSKDQM(pY)SDGNFTD; also: biotinylated, site not given here); assay: SPR
T2 chain: FNSKDQM[pY]SDGNFTD-NH2

Chain of EPOR/gp130Y757F (Q00560 640-917 Y757F limits assumed): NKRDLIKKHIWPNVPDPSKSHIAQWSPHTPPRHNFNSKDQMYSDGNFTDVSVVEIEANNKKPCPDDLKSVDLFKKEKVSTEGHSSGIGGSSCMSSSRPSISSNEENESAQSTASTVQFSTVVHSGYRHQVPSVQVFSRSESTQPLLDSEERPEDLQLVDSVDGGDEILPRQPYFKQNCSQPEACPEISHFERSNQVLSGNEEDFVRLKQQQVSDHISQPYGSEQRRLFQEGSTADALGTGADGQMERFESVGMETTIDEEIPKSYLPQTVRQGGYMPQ

FNSKDQM(pY)SDGNFTD (FNSKDQM[pY]SDGNFTD-NH2; N-terminus assumed; SMILES CSCC[C@H](NC(=O)[C@H](CCC(N)=O)NC(=O)[C@H](CC(=O)O)NC(=O)[C@H](CCCCN)NC(=O)[C@H](CO)NC(=O)[C@H](CC(N)=O)NC(=O)[C@@H](N)Cc1ccccc1)C(=O)N[C@@H](Cc1ccc(OP(=O)(O)O)cc1)C(=O)N[C@@H](CO)C(=O)N[C@@H](CC(=O)O)C(=O)NCC(=O)N[C@@H](CC(N)=O)C(=O)N[C@@H](Cc1ccccc1)C(=O)N[C@H](C(=O)N[C@@H](CC(=O)O)C(N)=O)[C@@H](C)O) [gp30(674-688) phosphopeptide, non-cognate gp130 phosphopeptide immobilized as non-specific control]
specific binding of SOCS-3 to immobilized peptide (SOCS-3): no specific binding was detected

SOCS-3: suppressor of cytokine signaling 3, expressed from transfected cDNA in 293T cells
SOCS-3 DNA giving 50% inhibition of luciferase activity (EPOR/gp130Y757F): 54 ng

B1: STASTVE(pY)STVVHS (peptide)
chain: STASTVE[pY]STVVHS-NH2
modifications: N-terminus assumed
SMILES: CC(C)[C@H](NC(=O)[C@@H](NC(=O)[C@@H](NC(=O)[C@H](CO)NC(=O)[C@H](Cc1ccc(OP(=O)(O)O)cc1)NC(=O)[C@H](CCC(=O)O)NC(=O)[C@@H](NC(=O)[C@@H](NC(=O)[C@H](CO)NC(=O)[C@H](C)NC(=O)[C@@H](NC(=O)[C@@H](N)CO)[C@@H](C)O)[C@@H](C)O)C(C)C)[C@@H](C)O)C(C)C)C(=O)N[C@@H](Cc1c[nH]cn1)C(=O)N[C@@H](CO)C(N)=O
IC50 [1]: 61 nM

B2: gp130 phosphopeptide S9A (peptide)
chain: STASTVE[pY]ATVVHSG-NH2
modifications: N-terminus assumed
SMILES: CC(C)[C@H](NC(=O)[C@@H](NC(=O)[C@@H](NC(=O)[C@H](C)NC(=O)[C@H](Cc1ccc(OP(=O)(O)O)cc1)NC(=O)[C@H](CCC(=O)O)NC(=O)[C@@H](NC(=O)[C@@H](NC(=O)[C@H](CO)NC(=O)[C@H](C)NC(=O)[C@@H](NC(=O)[C@@H](N)CO)[C@@H](C)O)[C@@H](C)O)C(C)C)[C@@H](C)O)C(C)C)C(=O)N[C@@H](Cc1c[nH]cn1)C(=O)N[C@@H](CO)C(=O)NCC(N)=O
IC50 [1]: 72 nM

B3: gp130 phosphopeptide V11A (peptide)
chain: STASTVE[pY]STAVHSG-NH2
modifications: N-terminus assumed
SMILES: CC(C)[C@H](NC(=O)[C@H](C)NC(=O)[C@@H](NC(=O)[C@H](CO)NC(=O)[C@H](Cc1ccc(OP(=O)(O)O)cc1)NC(=O)[C@H](CCC(=O)O)NC(=O)[C@@H](NC(=O)[C@@H](NC(=O)[C@H](CO)NC(=O)[C@H](C)NC(=O)[C@@H](NC(=O)[C@@H](N)CO)[C@@H](C)O)[C@@H](C)O)C(C)C)[C@@H](C)O)C(=O)N[C@@H](Cc1c[nH]cn1)C(=O)N[C@@H](CO)C(=O)NCC(N)=O
IC50 [1]: 3400 nM

B4
binding result [2]: no binding

B5: STASTVE(pY)STVVH (peptide)
chain: STASTVE[pY]STVVH-NH2
modifications: N-terminus assumed
SMILES: CC(C)[C@H](NC(=O)[C@@H](NC(=O)[C@@H](NC(=O)[C@H](CO)NC(=O)[C@H](Cc1ccc(OP(=O)(O)O)cc1)NC(=O)[C@H](CCC(=O)O)NC(=O)[C@@H](NC(=O)[C@@H](NC(=O)[C@H](CO)NC(=O)[C@H](C)NC(=O)[C@@H](NC(=O)[C@@H](N)CO)[C@@H](C)O)[C@@H](C)O)C(C)C)[C@@H](C)O)C(C)C)C(=O)N[C@@H](Cc1c[nH]cn1)C(N)=O
IC50 [1]: 77 nM

B6: AcAE(pY)STVVHSG (peptide)
chain: Ac-AE[pY]STVVHSG-NH2
SMILES: CC(=O)N[C@@H](C)C(=O)N[C@@H](CCC(=O)O)C(=O)N[C@@H](Cc1ccc(OP(=O)(O)O)cc1)C(=O)N[C@@H](CO)C(=O)N[C@H](C(=O)N[C@H](C(=O)N[C@H](C(=O)N[C@@H](Cc1c[nH]cn1)C(=O)N[C@@H](CO)C(=O)NCC(N)=O)C(C)C)C(C)C)[C@@H](C)O
IC50 [1]: 580 nM
